# The nanobody polyreactivity screen of Harvey et al. (2022)
# Test: yeast display, Sf9 membrane polyspecificity reagent, FACS + sequencing; frameworks hold sequencing errors
# Method in brief: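 Polyreactivity labels are assigned by the sorting gate from which each nanobody was recovered. The gates were low and high (top ~1%), set on anti-HA fluorescence for expression and streptavidin fluorescence for reagent binding. Before sorting, galactose-induced (36–48 hours) yeast display cells were stained for 1 hour at 4 °C with 10% biotinylated, detergent-solubilized Sf9 membrane reagent.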
row,Sequence,polyreactivity (PSR sort gate)
1,QVQLVESGGGLVQAGGSLRLSCAASGSTFQTYAMGWYRQAPGKERELLAAINWRSGSTYYADSVKGRFTISRDNAKNTVYLQMNSLTPEDTAVSYCAAELDFSPGYYYLYDYWGQGTQVTVSS,low polyreactivity
2,QVQLVESGGGLVQAGGSLRLSCAASGSTFQTYAMGWYRQAPGKERELVAAITWRGGSTYYADSVKGRFTISRDNAKTTVYLQMNSLKPEDTAVYSCAAKWHGAHDHRAAYESWGQGTQVTVSS,low polyreactivity
3,QVQLVESGGGLVQAGGSLRLSCAASGSTFQVNAMGWYRQAPGKERELVASISGGSSTNYADSVKGRFTISRDNAKNTVYLQMNSLKPEDTAVYYCAAYYLSGLRVAYDYWGQGTQVTVSS,low polyreactivity
4,QVQLVESGGGLVQAGGSLRLSCAASGSTFQVYAMGLYRQAPGKERELVASITSGGSTYADSVKGRFTISRDNAKNTVYLQINSLKPEDTAVYYCAAGGYFYPYTYDYWGQGTQVTVSS,low polyreactivity
5,QVQLVESGGGLVQAGGSLRLSCAASGSTFQVYAMGWYRQAPGKERELVATIRGVGSTNYADSVKGRFTISRDNAKKTVYLQMNSLKPEDTAVYYCNAAVSQFSHRWRRRITFDYWGQGTQVTVSS,low polyreactivity
6,QVQLVESGGGLVQAGGSLRLSCAASGSTFQYNAMGWYRQAPGKERELVAVITRRGGRTYYADSVKGRFTISRDNAKNTVYLQMNSLKPEDTAVYYCAAYYDYTHRFYYWGQGTQVTVSS,high polyreactivity
7,QVQLVESGGGLVQAGGSLRLSCAASGSTFQYNVMGWSRQAPGKERELVAAIRQSGSTTYYADSVKGRFTISRDNAKNTVYLQMNSLKPEDSAVYYCAKRYHNWANSRMDYWGQGSQVTVSS,low polyreactivity
8,QVQLVESGGGLVQAGGSLRLSCAASGSTFQYNVMGWYRQAPGKERELVAAISRSGTRTSYADSVKGRFTISRDYAKNTVYLQMNTLKPEDTAVYYCAAVVYHRYYSGYYYWGQGTQVTVST,high polyreactivity
9,QVQLVESGGGLVQAGGSLRLSCAASGSTFQYYAMGWYRQAPGKERELVAAIRTGGSTNYADSVKGRFTISRDNAKNTFYLQMNSLKPEDTAVYYCAKRSLRSYRMNYWGQGTQVTVSS,high polyreactivity
10,QVQLVESGGGLVQAGGSLRLSCAASGSTFQYYAMGWYRQAPGKERELVAAISSSGGSTYYADSVKGRFTISRDNAKNTVYLQMNSLKPEDTAVYYCAKRFRRFTYTRDYWGQGTQVTVSS,high polyreactivity
11,QVQLVESGGGLVQAGGSLRLSCAASGSTFQYYAMGWYRQAPGKERELVAAISSSGGSTYYADSVKGRFTISRDYAKNTVYFQMNSQKPEDTAVYYCAKRFRRFTYTRDYWGQGTQVTVTS,high polyreactivity
12,QVQLVESGGGLVQAGGSLRLSCAASGSTFRANAMGWYRQAPGTERELVAVISSGGRTYYADSVKGRFTMSRDNAKTTVYLQMNSLKPEDTAVYYCAKDDYSVWYYYDYDYWGQGTQVTVSS,high polyreactivity
13,QVQLVESGGGLVQAGGSLRLSCAASGSTFRAYAMGWYRQAPGKEREFVADISWSGGSTYYADSVKGRFTISRDNAKNTVYLQMNSLKPEDTAVYYCAAEAAPLIIVTYDYWGQGTQVTVSS,low polyreactivity
14,QVQLVESGGGLVQAGGSLRLSCAASGSTFREYTMGWYRQAPGKERELVAAITNSGGSTYYADSVKGRFTISRDNAKNTVYLQMNSLKPEDTAVYYCAAEVGIVDYDYWGQGTQVTVSS,low polyreactivity
15,QVQLVESGGGLVQAGGSLRLSCAASGSTFRFNAMGWYRQAPGKERELVAAISGSGGSTYYADSVKGRFTISRDNAKNTVYLQMNSLKPEDTAVYYCAASASSRSYFKSYYWGQGTQVTVSS,high polyreactivity
16,QVQLVESGGGLVQAGGSLRLSCAASGSTFRFNAMGWYSQAPGKERELVAAITGIGGITYYADSVKGRFTISRDNAKNTVYLQMNSLKPEDTAVYYCNAVAARYSVRNGYSTHYDYWGQGTQVTVSS,high polyreactivity
17,QVQLVESGGGLVQAGGSLRLSCAASGSTFRFYAMGWYRQAPGKERELLAAINGSGGSTYYADSVKGRFTISRDKAKSTVNLQMNSLKPEDTAVYYSAVLYRYGYDYWGQGTQVTVSS,low polyreactivity
18,QVQLVESGGGLVQAGGSLRLSCAASGSTFRGNAMGWYRQAPGKERELVAAISRRGGSTNYADSVKGRFTISRDNAKNTVYLQMNSLKPEDTAVYYCNKGDYRSAYRHIEYGYWGQGTQVTVSS,low polyreactivity
19,QVQLVESGGGLVQAGGSLRLSCAASGSTFRGYALGWYRQAPGKERELVATISGSDGTTYYADSVKGRFTISRDNAKNTVYLQMNSLKPEDTAVYYCAAGETFEMYYWGQGTQVTVSS,low polyreactivity
20,QVQLVESGGGLVQAGGSLRLSCAASGSTFRGYAMGWYRQAPGKERELVAAISSRGARTHYADSVKGRFTISRDNAKNTVYLQMNSLKPEDTAVYYCNKRQVFVSTGEYELDYWGQGTQVTVSS,low polyreactivity
21,QVQLVESGGGLVQAGGSLRLSCAASGSTFRGYAMGWYRQAPGKERELVAAISWSGVSTYYADSVKGRFTISRDNAKNTVYLQMNSLKPEDTAVYYCAAGYSSAYLRFGYWGQGTQVTVSS,low polyreactivity
22,QVQLVESGGGLVQAGGSLRLSCAASGSTFRGYAMGWYRQAPGKERELVASISWSGGSTYYADSVKGRFTISRDNAKNTVYLQMNSLKPEDTAVYYCAARKRWRNIRMDYWGQGTQVTVSS,high polyreactivity

row,Sequence,polyreactivity (PSR sort gate)
1,QVQLVESGGGLVQAGGSLRLSCAASGSTFRGYVMGWYRQAPGKERELVAAITYSGGSTYYADSVKGRFTISRDNAKNTVYLQLNSLKPEDTAVYYGADEIYDSYYEDDYWGQGTQVTVSS,high polyreactivity
2,QVQLVESGGGLVQAGGSLRLSCAASGSTFRHNVMGWYRQAPGKERELVAAISYSGGSTHYADSVKGRFTISRDNAKNTVYLQMNSLKPEDTAVYYCNRYSYDSHFLYPFRGHDYWGQGTQVTVSS,low polyreactivity
3,QVQLVESGGGLVQAGGSLRLSCAASGSTFRHYAMGWYRQAPGKERELVAVISWGGTSTYYADSVKGRFTISRDNAKNTVYLQMNSLKPEDTAVYYCAVKYAYPYAGVSAIRYYYWGQGTQVTVSS,low polyreactivity
4,QVQLVESGGGLVQAGGSLRLSCAASGSTFRINAMGWYRQAPGNERELVAAMSYNGGGTYADSVKGRFTISRDNAKNTVYLQMNSLKPEDTAVSYCAADTYYGQAYTAYTYRLYDYWGEGTQVTVSS,low polyreactivity
5,QVQLVESGGGLVQAGGSLRLSCAASGSTFRIYAMGWYRQAPGREREFVAAITWTGGSTYYADSVKGRFTISRDNAKNTVYLQMNSLKPEDTADYYCAARQLSDYYWGQGTQVTVSS,high polyreactivity
6,QVQLVESGGGLVQAGGSLRLSCAASGSTFRKYAMGWYRQAPGKEREFVAAISSSGGRTYYADSVKGRFTISRDNAKNTVYLQMNSLKPEDTAVYYCNAYFRYSYDYWGQGTQVTVSS,high polyreactivity
7,QVQLVESGGGLVQAGGSLRLSCAASGSTFRKYTMGWYRQAPGKERELVASISRRGGSTYYADSVKGRFTISRDNAKNTVYLQMNSLKPEDTAVYYCNVTYSQYGYDYWGQGTQVTVSS,high polyreactivity
8,QVQLVESGGGLVQAGGSLRLSCAASGSTFRLNAMGWYRQARGKEWEFVAAISSRGGSTYYADSVKGRFTISRDNAKNTDYLQMNSLKPEDTAVYYCKAVRSKLIENDYWGQGTQVTVSS,high polyreactivity
9,QVQLVESGGGLVQAGGSLRLSCAASGSTFRLNAMGWYRQSPGKERELVAAISRGGSTNYADSVKGRFTISRDNAKNTVYLQMNSLKPEDTAVYYCATRRSYKYYWGQGTQVTVSS,high polyreactivity
10,QVQLVESGGGLVQAGGSLRLSCAASGSTFRLYAMGWYRQAPGKERELVAAISQRGGSTYYADSVKGRFTISRDNAKNTVYLQMNSLKPEDTAVYYCNTDWYRKWGKPYYYWGQGTQVTVSS,high polyreactivity
11,QVQLVESGGGLVQAGGSLRLSCAASGSTFRLYTKGWYRQAPGKERELVAAISVSGVSTYYADSVKGRFTISRDNAKNTVYVQMNSLKPEDTAVYYCAKRGYLFLRGSVRVGYNYWGQGTQVTVSS,low polyreactivity
12,QVQLVESGGGLVQAGGSLRLSCAASGSTFRNNAMGWYRQAPGKERELVAAISWIGGDTYYADSVKGRFTISRDNAKNTVYLQMNSLKPEDTAVYYCNRDFVYWPWFKFDYWGQGTQVTVSS,low polyreactivity
13,QVQLVESGGGLVQAGGSLRLSCAASGSTFRNYAMGWYRQAPGKDRELVAAISGSGGRTNYADSVKGRFTISRDNAKTTVYLQMNSLKPEDTAVYYCAASGGRNWWAARNYYWGQGTQVTVSS,low polyreactivity
14,QVQLVESGGGLVQAGGSLRLSCAASGSTFRPNAMGWYRPAPGKDRELVAAISWSGRSTYYADSVKGRFTISRDQAKTTVYLQMNSLTPQDTAVADCAKELYAGRTDTRTRYDYWGQGTQVTVSS,high polyreactivity
15,QVQLVESGGGLVQAGGSLRLSCAASGSTFRPNAMGWYRQAPGKERELVAAISRSGVSTYYADSVKGRFTISRDNAKNTVYLQMNSLQPEDTAVYYCARRYTGRPVLRESWGQGTQVTVSS,low polyreactivity
16,QVQLVESGGGLVQAGGSLRLSCAASGSTFRQYAMGWYRQAPGKERELVAAIRGRDGSTYYADSVKGGFTISRDNAKYTVYLQMNSLKPEDSAVYYCNVVARGVSPGYDYWGQGTQVTVSS,high polyreactivity
17,QVQLVESGGGLVQAGGSLRLSCAASGSTFRRNAMGGYRQAPGKERELVAAITSTDSTYYADSVKGRFTISRDNAKNSVYLQMNSLKPEDTAVYYCAKGYWWGGEMGYWGQGTQVTVSS,low polyreactivity
18,QVQLVESGGGLVQAGGSLRLSCAASGSTFRRNAMGWYRQAPGKERELVAAITSTDSTYYADSVKGRFTISRDNAKNTVYLQMNSLKPEDTAVYYCAKGYCWGGQMGYWGQGTQVTVSS,low polyreactivity
19,QVQLVESGGGLVQAGGSLRLSCAASGSTFRRNAMGWYRQAPGKERELVAAITVSGGSTYYADSVKGRFTISRDNAKNTVYLQMNSLKPEDTAVYYCAAEPSQYSWYTTYYYWGQGTQVTVSS,high polyreactivity
20,QVQLVESGGGLVQAGGSLRLSCAASGSTFRRNAMGWYRQAPGKERELVATISTRGGSTYYADSVKGRLTLSRDNAKNTVYLQMNSLKPEDTAVYYCAADRRSGYSRSKYGRGDYWGQGTQVTVSS,high polyreactivity
21,QVQLVESGGGLVQAGGSLRLSCAASGSTFRRYAMGSYRQAPGKERELVAAISVSGGRTSYADSVKGRFTISRDNAKNTVYLQMNSLKPEDTAVYYCNADYYKRMDYWGQGTKVTVSS,high polyreactivity
